Values belong to the substance of their own block, whether it stands above or below them.
Key:
[1] = target: unmodified VASP (TAMRA–VASP; cysteine-light VASP^CCC-SSA with an N-terminal GGG motif) (human); assay: mass photometry; 15 nM VASP, room temperature, Refeyn One; margin of error of each mass about 20-25%
[2] = target: chicken skeletal muscle actin (filaments, 10% Alexa Fluor 488 labeled) (chicken) (UniProt P68139); assay: single-molecule TIRF microscopy (dwell time); 1 nM TAMRA–VASP at the trailing barbed end of two-filament bundles; 1.5 µM actin (10% Alexa Fluor 488 labeled), 673 nM fascin, TIRF buffer, room temperature; 0.5 s/frame; one-phase decay fit of 1−cumulative frequency
[3] = target: mmUb-K240/K286 VASP (VASP^CCC-SSA K240C, K286C crosslinked by bismaleimidoethane to two ubiquitin^(1-74, G75C)) (UniProt P0CG48); assay: mass photometry; 15 nM VASP, room temperature, Refeyn One; margin of error of each mass about 20-25%
[4] = target: mUb-K240 VASP (VASP^CCC-SSA K240C crosslinked by bismaleimidoethane to ubiquitin^(1-74, G75C)) (UniProt P0CG48); assay: as above
[5] = target: mUb-K286 VASP (VASP^CCC-SSA K286C crosslinked by bismaleimidoethane to ubiquitin^(1-74, G75C)) (UniProt P0CG48); assay: as above

stoichiometry N [1]: 4
lifetime τ1 at the barbed end [2]: 1.17 s
Substance: unmodified VASP (TAMRA–VASP; cysteine-light VASP^CCC-SSA with an N-terminal GGG motif) (natural protein)

stoichiometry N [3]: 4
lifetime τ1 at the barbed end [2]: 1.14 s
Substance: mmUb-K240/K286 VASP (VASP^CCC-SSA K240C, K286C crosslinked by bismaleimidoethane to two ubiquitin^(1-74, G75C)) (from UniProt P0CG48 1-75) (complex)

stoichiometry N [4]: 4
Substance: mUb-K240 VASP (VASP^CCC-SSA K240C crosslinked by bismaleimidoethane to ubiquitin^(1-74, G75C)) (from UniProt P0CG48 1-75) (complex)

stoichiometry N [5]: 4
Substance: mUb-K286 VASP (VASP^CCC-SSA K286C crosslinked by bismaleimidoethane to ubiquitin^(1-74, G75C)) (from UniProt P0CG48 1-75) (complex)

Source: PMC10917064
